Values joined by “and” are separate entries in the source; they are usually repeats but may differ in a detail not shown here. Equal values may be shown once.
Columns and labels:
[1] = target: T1, recombinant human TTR, denatured (misfolded) (human, UniProt P02766 21-147); assay: SPR Biacore T200, antibody captured by anti-mouse antibody, Gu-hTTR 0.4-100 nM as analyte, 1:1 fit
Experimental: (§1) Anti-Human antibody was immobilized on flow cells 1 and 2, Anti-Mouse antibody was immobilized on flow cells 3 and 4 on sensor chip CM3 (GE Healthcare Life Sciences) via amine coupling, chimeric and murine 18C5 antibodies (ligand) were captured to a level to ensure a maximum binding of analyte of 50 RU (approximately 250RU of ligand binding). Various concentrations of Gu-TTR (ranging from 0.4 nM to 100 nM) were passed over the captured ligand at 50 μL/min in running buffer (HBS+0.05% P-20, 1 mg/mL BSA, 50 mM Gu-HCl) for 300s association time and 900s dissociation time. Regeneration of the chip surface was accomplished by 2 short injections of 3M Magnesium Chloride or 2 short injections of 10 mM Glycine-HCl at pH 1.7. Data was blank subtracted to both a sensor not containing ligand and 0 nM analyte concentration. Analysis was performed using a global 1:1 fit with Biacore Evaluation software (v3.0) with bulk refractive index set to zero RU.

[2] = target: native tetrameric human TTR (human, UniProt P02766 21-147); assay: SPR Biacore T200, antibody captured by anti-mouse antibody, human TTR tetramer 10-10,000 nM as analyte, 1:1 fit
Experimental: (§2) Anti-Mouse antibody was immobilized on sensor chip CM3 (GE Healthcare Life Sciences) via amine coupling, and murine antibodies (ligand) were captured to a level to ensure a maximum binding of analyte of 50 RU (approximately 250RU of ligand binding). Various concentrations of Gu-TTR (ranging from 0.4 nM to 100 nM) were passed over the captured ligand at 50 μL/min in running buffer (HBS+0.05% P-20, 1 mg/mL BSA, 50 mM Gu-HCl) for 300 s association time and 900 s dissociation time. Regeneration of the chip surface was accomplished by 2 short injections of 10 mM Glycine-HCl at pH 1.7. Concentrations of Gu-cTTR used ranged from 1-1000 nM, while concentrations of Human TTR tetramer ranged from 10 nM to 10,000 nM. Data was blank subtracted to both a sensor not containing ligand and 0 nM analyte concentration. Analysis was performed using a global 1:1 fit with Biacore Evaluation software (v3.0) with bulk refractive index set to zero RU.

[3] = target: T1, recombinant human TTR, denatured …; assay: SPR Biacore T200, antibody captured by anti-mouse antibody, Gu-hTTR as analyte, 1:1 fit
Experimental: as §2

[4] = target: Cynomolgus TTR denatured in 6 M Guanidine Hydrochloride (Cynomolgus, UniProt Q8HXW1 21-147); assay: SPR Biacore T200, antibody captured by anti-mouse antibody, Gu-cTTR 1-1000 nM as analyte, 1:1 fit
Experimental: as §2

[5] = target: T1, recombinant human TTR, denatured …; assay: SPR Biacore T200, antibody captured by anti-human antibody, Gu-hTTR 0.4-100 nM as analyte, 1:1 fit
Experimental: as §1

[6] = target: misfolded TTR in plasma of ATTR patients (human, UniProt P02766 21-147); assay: MSD ECL competition: m14G8 spiked into plasma of 12 h-ATTR patients, free mis-TTR captured by biotinylated 9D5 (competitor), Dako polyclonal reporter

B1: mouse 18C5 antibody (antibody, V domains shown)
VH: EVKLLESGGGLVQPGGSLNLSCVASGFDFSRFWMSWARQAPGRGQEWIGEINPGSSTINYTPSLKDKFIISRDNAKNTLFLQMSKVRSEDSALYYCARLGYGNYGWALDYWGQGTSVTVSS
VL: DVLMTQTPLSLPVSLGDQASISCRSSQSIVDSNGNTYLEWYLQKPGQSPKLLIYKVSNRFSGVPDRFSGSGSGTDFTLKISRVEAEDLGIYYCFQGSHVPLTFGAGTKLELK
notes: Used unlabelled (Biacore, Western blot), biotinylated (capture) or SULFO-TAG labelled (reporter) in the MSD assays; also called murine 18C5; m18C5
[1]
  Kd: 2.2 nM
  koff: 0.00021 s⁻¹
  kon: 99000 M⁻¹ s⁻¹
[2]
  koff: 0.00022 s⁻¹
  kon: 2200 M⁻¹ s⁻¹
[3]
  Kd: 5.9 nM
  koff: 0.00062 s⁻¹
  kon: 110000 M⁻¹ s⁻¹
[4]
  koff: 0.00092 s⁻¹
  kon: 100000 M⁻¹ s⁻¹

B2: chimeric 18C5 antibody (antibody, human IgG1, kappa, V domains shown)
VH: B1 VH
VL: DVLMTQTPLSLPVSLGDQASISCRSSQSIVDSNGNTYLEWYLQKPGQSPKLLIYKVSNRFSGVPDRFSGSGSGTDFTLKISRVEAEDLGIYYCFQGSHVPLTFGAGTKLELKR
notes: Mouse 18C5 variable regions on human IgG1/kappa constant regions, expressed in CHO cells
[5]
  Kd: 1.8 nM
  koff: 0.00016 s⁻¹
  kon: 130000 M⁻¹ s⁻¹

B3: Mouse 14G8 (antibody, V domains shown)
VH: EVKLVESGGGLVQPGGSLKLSCAASGFTFSSYTMSWVRQTPEKRLELVAEINNSGDTTYYPDTVKGRFTISRDNAKNTLYLQMSSLKSEDTAMYYCARHYYYGGGYGGWFFDVWGTGTTVTVSS
VL: DIVMTQAAPSVPVTPGESVSISCRSNKSLLHSNGNTYLYWFLQRPGQSPQLLIYRVSNLASGVPDRFSGSGSGTAFTLRISRVEAEDVGVYYCMQHLEYPLTFGAGTKLELKR
[6]
  EC50: 343 nM and ~50 µg/mL

Reference: US20200249244A1 (PROTHENA BIOSCIENCES, published 2020)
